Results from the supplement of paper PMC9170038.

system: K4 kissing-loop RNA reporter; assay: apparent KD of K4 kissing-loop reporter; higher = weaker reporter binding; settings: Eterna round: R107; input ligand: arginine 13.2 mM
Experimental: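 RNA-MaP round R107: designed RNA switches with theophylline, tryptophan, arginine or FMN aptamers are transcribed on-chip within common flanks. They are titrated with a labelled K4 kissing-loop RNA reporter in RNA-MaP buffer (100 mM Tris pH 7.5, 80 mM KCl, 4 mM MgCl2), without ligand or with the indicated ligand. Median apparent KD per design.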
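Note: bound reporter read as fluorescence of individual clusters on recovered sequencing chips by microscopy, with normalized cluster intensities fitted with a binding model.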

First: AGCUAGUACGCAGGAUAUCGAACAUCAUUUAGUGAGAUCGAGUGAUGUUCGAUCACGUCUUCAGUUCGAGAAGGGCGUACUAGCA [#01 K4 FMN B Same State]
Second: UGAGGAGAUUAUGAUACCAGCAGAGAGAGAGAGGAAGUAUAGUGAUGUUAUAUGAGAUAAUGCCCUUGGCAGCAUAAGAAGAAGG [#20 K4 Theophylline B Same State]
The “apparent KD of K4 kissing-loop reporter” value of the first is 3.2-fold higher: 423 nM for the first, 133 nM for the second.

Compared with “AAGUGAUGUUGUAGUGAUGUUGUGAUGUUGCAGGAUAUAUAGUGAUGUAGAAGGGUAAGUACUGAUUUUUUUUGUGAGUGAUGUU [bbgvzrmullin]”, “GGACGACAGUCGGCCGCCACUCACAGCAGCCAGUGAUGUUGGAUUGUAGCGGAGUGAUGUUUCGCGAGGACCGGGACUGCAGUCC [Same State Tryptophan B GF 14]” is 4.1-fold higher in “apparent KD of K4 kissing-loop reporter” value: 41.6 nM for the first, 171 nM for the second.

“AAUAUAGUGAUGUUAUAUAAGAAGGAGUUACGAGGACCGGUACGGCCGCCACUCGAAACGAGUGAGGAUUUGGGAGAUUGGGUUC [SSTryptA.L]” and “GACUGGUUAACAGAUACCAGCCACAAGCGUUGAGGCGGCGGUAAAGUGAUGUUUUAUAAAGGCCCUUGGCAGCUGACUAGUUCGU [theeternabot_exclusion_KL_Theo_B_28]” are within 1.5-fold of each other in “apparent KD of K4 kissing-loop reporter” value: 539 nM for the first, 387 nM for the second.

Going from “UGACUGGACUGAAGGAGCGUUGAAGGAGCGUAAGGAGUGAUGUUCCAUACAGGUAGGUCGCAGCAGGUAGGUCGCAGUCUAGUCU [ArgBS 26 #DoubleAptamer #SwitchBubble]” to “AGACCACAAAGUGGUCAGUGUUCGCGGCAGCGAGGACCGGUACGGCCGCCACUCGCGAGUGAUGUUCGCGAGAGCCGCGAACACA [Omei KL Tryp A Exc A v8]”, the “apparent KD of K4 kissing-loop reporter” value falls from 245 nM to 80.9 nM (3-fold).

First: CAUUCAGUGAUGUUGGAAGGCGAGCGGGAUACCAGCGGAGACUCACGCCCUUGGCAGCCCAUAUAUCCCAGGUAGAUAAUAGUUC [Same State - Theophylline A (Freestyle 5)]
Second: GGAACUACGACGGCCGCCACUCUGUAUCCCAACGUUAAGGUCCUAACUGCAAGUGAUGUUUGUGCGAGGACCGGGUCUCCCUUGC [theeternabot_exclusion_KL_Trp_B_30]
The “apparent KD of K4 kissing-loop reporter” value of the first is 1.8-fold lower: 117 nM for the first, 213 nM for the second.

Going from “AUGCGCGCGGCGGCCGCCACUCGCAUGAGAGUGAUGUUCUCACCGUGACCGUAAGGUCGCGGUGUGAGGACCGGGCCGGGCUGCG [#2 Same State - Tryptophan B Attempt #23 (HarryS)]” to “CUGGGUUGACGAAAAGUCAACAAAAGAGAAGGAGCGCACGAAAGUGCAGGUAGGUCGCUCAUCCAGUGAUGUUGGAUCAUCCAGA [#SwitchBubble 16 #K4Late]”, the “apparent KD of K4 kissing-loop reporter” value rises from 72.7 nM to 611 nM (8.4-fold).

“UGUCAUUGGUCGGCCGCCACUCCGUAACGAGUGAUGUUCUAAAAGACGGAUCGAAAGAUCUGUCGGAGGACCGGGACCGAUGACU [FiskerMod 7 - Jieux - Same State - Tryptophan B]” and “UGUACCGAGUCAGGAUAUGUCGUCGAAAGACGAAUCCUAGUGAUGUUAGGGAUCUGCGAAAGCAGUGCAGAAGGGACUUGGUACU [FmnBS 26 U20+G67]” are within 1.5-fold of each other in “apparent KD of K4 kissing-loop reporter” value: 149 nM for the first, 182 nM for the second.

Compared with “CUAUGGAAACAUAGUGAUCGGGAAACCGAUACCAGUAUGGAAACAUACCCUUGGCAGCGGAAUGAUCAAACGGAGUGAUGUUCCG [Theophylline A K4 21]”, “CCAUCGCUAUUCGAUACCAGCUCCUUAGUGAUGUUAAGGUUUUACCCACUGUAGGUGGGAAGCCCUUGGCAGCGAAUAGUGAUGG [Theophylline B K4 28]” is 2.7-fold higher in “apparent KD of K4 kissing-loop reporter” value: 318 nM for the first, 872 nM for the second.

Going from “GGUAGCAUGGCGGCCGCCACUCUUCAUUAGUGAUGUUAAUGCCGAGUGCGCUAACUCCGCCAGGAGAGGACCGGGCCAUGCUACC” to “AGAACUGUCUGAGAUACCAGCUAAGGAGUGAUGUUCCUAGCUCCACGAAAGUGGAGCCAUAGCCCUUGGCAGCUCAGACAGUUCA [Omei KL Theo B SS A v6]”, the “apparent KD of K4 kissing-loop reporter” value rises from 302 nM to 588 nM (1.9-fold).

Compared with “GCAGUGAUGUUGCACGAGUAGGGUAGAGUGCGAGGACCGGUACGGCCGCCACUCGUAUGGAACUCGCUAAUUUAUGGAAUGGUGA [whbob_SS_tryp_A]”, “UGCAUCGUUGGCAGGCGCACCACACAGUGUAAGGAUAUGAUGUCGUUCAGAAGGUACGCUUGACCGAGUGAUGUUCGGGAGUGCC [theeternabot_sameState_KL_FMN_A_9]” is 4.1-fold lower in “apparent KD of K4 kissing-loop reporter” value: 828 nM for the first, 200 nM for the second.

“GGAGUUACCUGGGAUACCAGUCGGAGUCUCAGAGCACAGAGUGAUGUUCUGGGAUGUUUCGGCCCUUGGCAGCUCUGGGACUCCA [#2 Exclusion - Theophylline B Attempt #14 (HarryS)]” and “AGCGAGAUACUUGUCUAGUAUACUACAGAUACCAGACAAGUACUAGUCCCUUGGCAGCUGUAGAUCGAGUGAUGUUCGAGUCGCU [Theo A SS t1]” are within 1.5-fold of each other in “apparent KD of K4 kissing-loop reporter” value: 359 nM for the first, 415 nM for the second.

Going from “UGUAUGUGAUUUGAUACCAGACCAUCUUGUGAGAAAUGAGUGAUGUUUAUUUUGGUUUGGGUCCCUUGGCAGCAAAUCGCAUACU [KL-SSTheoB24]” to “AACAUUUUCAGAAGGAGCGUGAAUUAUUCAUAAUUAUAUUAUACGAGUGAUGUUCGUAUUUCACAGGUAGGUCGCUGAUAUAUUA [JR_SSArginiB_Sub001]”, the “apparent KD of K4 kissing-loop reporter” value falls from 356 nM to 133 nM (2.7-fold).

same assay, conditions: Eterna round: R107; input ligand: none

Compared with “AGAGUUAUGCGAGGAUAUGCGGUUAGUACUCAAAGAGUACUAACGCAGAGUGAUGUUCUGUGAAACACAGAAGGCGCAUAACUCA [Omei KL FMN B SS B v1]”, “AAGGACGGGACUUCCUCGCCGGAUAGAGAUACCAGCCCAGCAAUGGGCCCUUGGCAGCUCACUGACCUCAGUGAUGUUGAGGUUC [Arange]” is 2-fold lower in “apparent KD of K4 kissing-loop reporter” value: 475 nM for the first, 240 nM for the second.

“UAGGAGUGAUGUUCCUUUAGCAGGUAGGAAGGAGCGCCCAUUUGGGCAGGUAGGUCGCCUACUGGCCCUGAGUUAAACCUUAGGC [#11 K4 Arginine A Same State]” and “UGGAGUUGACGAAAAGUCAACUCCUGAGAUACCAGUGACGAAAGUCACCCUUGGCAGCUCACUGCCAGUGAUGUUGGAAAUAAAA [#01 K4 Theophylline A Same State]” are within 1.5-fold of each other in “apparent KD of K4 kissing-loop reporter” value: 150 nM for the first, 224 nM for the second.

Going from “CGUAGCAGACGAAGGAGCGGCUACCUGAAUCAGGGUGAUGCCUGAGUGAUGUUCAGGUAAAGCCAGGUAGGUCGCGUCUGCUACG [Arg B Ex t9a]” to “UGACUGGACUGAAGGAGCGCUGAACUCCUAGUGAUGUUAGGACAACGAGACAAAGUCUCGCGGCAGGUAGGUCGCAGUCUAGUCU”, the “apparent KD of K4 kissing-loop reporter” value falls from 232 nM to 121 nM (1.9-fold).

First: UGUACCGAGUCAGGAUAUCAUAAAGUUGGAGUGAUGUUCCAAUAACGACUGACAAAGUCGGUCGAUUGAGAAGGGACUUGGUACU [FmnBS 9 #SwitchBubble #StaticStem]
Second: AGCUAGUACGCAGGAUAUCGAACAUCAUUUAGUGAGAUCGAGUGAUGUUCGAUCACGUCUUCAGUUCGAGAAGGGCGUACUAGCA [#01 K4 FMN B Same State]
The “apparent KD of K4 kissing-loop reporter” value of the first is 7.7-fold lower: 141 nM for the first, 1090 nM for the second.

First: UGAGGAGAUUAUGAUACCAGCAGAGAGAGAGAGGAAGUAUAGUGAUGUUAUAUGAGAUAAUGCCCUUGGCAGCAUAAGAAGAAGG [#20 K4 Theophylline B Same State]
Second: AAGUGAUGUUGUAGUGAUGUUGUGAUGUUGCAGGAUAUAUAGUGAUGUAGAAGGGUAAGUACUGAUUUUUUUUGUGAGUGAUGUU [bbgvzrmullin]
The “apparent KD of K4 kissing-loop reporter” value of the first is 1.9-fold higher: 148 nM for the first, 75.9 nM for the second.

Compared with “GGACGACAGUCGGCCGCCACUCACAGCAGCCAGUGAUGUUGGAUUGUAGCGGAGUGAUGUUUCGCGAGGACCGGGACUGCAGUCC [Same State Tryptophan B GF 14]”, “AAUAUAGUGAUGUUAUAUAAGAAGGAGUUACGAGGACCGGUACGGCCGCCACUCGAAACGAGUGAGGAUUUGGGAGAUUGGGUUC [SSTryptA.L]” is 1.7-fold higher in “apparent KD of K4 kissing-loop reporter” value: 227 nM for the first, 393 nM for the second.

Going from “GACUGGUUAACAGAUACCAGCCACAAGCGUUGAGGCGGCGGUAAAGUGAUGUUUUAUAAAGGCCCUUGGCAGCUGACUAGUUCGU [theeternabot_exclusion_KL_Theo_B_28]” to “UGACUGGACUGAAGGAGCGUUGAAGGAGCGUAAGGAGUGAUGUUCCAUACAGGUAGGUCGCAGCAGGUAGGUCGCAGUCUAGUCU [ArgBS 26 #DoubleAptamer #SwitchBubble]”, the “apparent KD of K4 kissing-loop reporter” value falls from 383 nM to 229 nM (1.7-fold).

In the case of “AGACCACAAAGUGGUCAGUGUUCGCGGCAGCGAGGACCGGUACGGCCGCCACUCGCGAGUGAUGUUCGCGAGAGCCGCGAACACA [Omei KL Tryp A Exc A v8]”, the “apparent KD of K4 kissing-loop reporter” value is reported as 82.6 nM.
